The source of these data is paper PMC2615625.

The target of series [1] is T1, NM23-H2 wild type (UniProt P22392 1-152). Nature of the series: EMSA. (A gel shift assay detects complexes by their altered migration in electrophoresis.)
Another series has as its target NM23-H2 K12A (UniProt P22392 1-152, K12A). Nature of the series: EMSA with FRET detection.
The next series has as its target NM23-H2 H118C (UniProt P22392 1-152, H118C). Description: EMSA with FRET detection.
For series [2], the target named is T1, NM23-H2 wild type. Description: EMSA with FRET detection.

T1 sequence (P22392 whole entry): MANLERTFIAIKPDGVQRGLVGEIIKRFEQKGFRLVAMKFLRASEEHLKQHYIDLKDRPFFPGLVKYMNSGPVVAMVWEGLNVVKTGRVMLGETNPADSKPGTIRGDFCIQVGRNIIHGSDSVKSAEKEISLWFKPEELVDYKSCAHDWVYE
Sequence of NM23-H2 H118C (P22392 whole entry H118C): as the sequence (P22392 whole entry) above, with H118C counted along it
Sequence of NM23-H2 K12A (P22392 whole entry K12A): as the sequence (P22392 whole entry) above, with K12A counted along it

B1: c-MYC NHE G4 27-mer (structured_DNA)
DNA: TGGGGAGGGTGGGGAGGGTGGGGAAGG
With B1, the binding result with NM23-H2 wild type [1] was “binds”.

B2: FG27T (structured_DNA)
DNA: TGGGGAGGGTGGGGAGGGTGGGGAAGG
In the case of B2, the binding result in the series with NM23-H2 K12A, with NM23-H2 H118C and in the series with NM23-H2 wild type [2] was “binds” in each case.
